Data: patent US20230250557A1 (published 2023)

B1: 3-8A (designed binder)
chain: GSHMVSGKIVVIGSSTGGPRSLDMIIPNLPKNFPAPIVVVQHGSWVDGSWTWGTKSLAQRLDSTSELTVKEAEDGEEVKPGFVYIAPGDFHLGLKAQNGKVFFFLDKSGWWNGGYWVTGVRPAVDFTLDKAAEIYKEKTIAVILTGGVNLGLYNGGDGTKGAFKVKFYGGTVIAEDKETSVVFGMPKSVIEEGYADYVLPAYKIPEKLIELV
notes: CheBc scaffold clone from modified pQE-80L in E. coli, purified on cobalt resin, detected with anti-FLAG
B2: 4-7D (designed binder)
chain: GSHMVSGKIVVIGSSTGGPRSLDMIIPNLPKNFPAPIVVVQHGHDWSGSSGWGTKSLAQRLDSTSELTVKEAEDGEEVKPGFVYIAPGDFHLGLKAQNGKVFFFLDKSGWVSWGWTNNGVRPAVDFTLDKAAEIYKEKTIAVILTGGRYEGVLLGGDGTKGAFKVKFYGGTVIAEDKETSVVFGMPKSVIEEGYADYVLPAYKIPEKLIELV
notes: as for B1
B3: 3-7E (designed binder)
chain: GSHMVSGKIVVIGSSTGGPRSLDMIIPNLPKNFPAPIVVVQHGYYWGSWGYEGTKSLAQRLDSTSELTVKEAEDGEEVKPGFVYIAPGDFHLGLKAQNGKVFFFLDKSGRVVDGWDYDGVRPAVDFTLDKAAEIYKEKTIAVILTGGWDTGSELGGDGTKGAFKVKFYGGTVIAEDKETSVVFGMPKSVIEEGYADYVLPAYKIPEKLIELV
notes: as for B1
B4: 1-12E (designed binder)
chain: GSHMVSGKIVVIGSSTGGPRSLDMIIPNLPKNFPAPIVVVQHGDGWYGGGAVGTKSLAQRLDSTSELTVKEAEDGEEVKPGFVYIAPGDFHLGLKAQNGKVFFFLDKSGGSYTGEWTWGVRPAVDFTLDKAAEIYKEKTIAVILTGGARYGDLRGGDGTKGAFKVKFYGGTVIAEDKETSVVFGMPKSVIEEGYADYVLPAYKIPEKLIELV
notes: as for B1
B5: 1-1B (designed binder)
chain: GSHMVSGKIVVIGSSTGGPRSLDMIIPNLPKNFPAPIVVVQHGEGWYGGGAVGTKSLAQRLDSTSELTVKEAEDGEEVKPGFVYIAPGDFHLGLKAQNGKVFFFLDKSGRGLRGGWSWGVRPAVDFTLDKAAEIYKEKTIAVILTGGAATGSSNGGDGTKGAFKVKFYGGTVIAEDKETSVVFGMPKSVIEEGYADYVLPAYKIPEKLIELV
notes: as for B1
B6: 1-12C (designed binder)
chain: GSHMVSGKIVVIGSSTGGPRSLDMIIPNLPKNFPAPIVVVQHGWALNGRYTLGTKSLAQRLDSTSELTVKEAEDGEEVKPGFVYIAPGDFHLGLKAQNGKVFFFLDKSGARDRGREWYGVRPAVDFTLDKAAEIYKEKTIAVILTGGYWEGDYAGGDGTKGAFKVKFYGGTVIAEDKETSVVFGMPKSVIEEGYADYVLPAYKIPEKLIELV
notes: as for B1

molecular target: T1, Biotinylated human HER2 antigen comprising a portion of the HER2 extracellular domain (Acro Biosystems) (human, UniProt P04626 23-652, biotinylated (site not stated)); experiment: ELISA, antigen coated at 1 ug/mL, purified scaffold titrated, anti-FLAG-HRP detection
T1 construct: extracellular domain; The ELISA text says only 'antigens' were coated; also called HER2 target
Experimental: (§1) Affinity of binding of individual scaffolds of the invention was estimated by ELISA. Antigens were dissolved in PBS to 1 μg/mL and 100 μl coated onto the surface of each well of a 96 well MaxiSorp Plate (Nunc) at 4° C. overnight. The next day, the wells of the MaxiSorp plate were washed with PBST buffer (PBS containing 0.05% Tween-20) and the wells blocked with 400 μl per well of 5% (w/v) skim milk powder in PBST for 2 hours. This blocking buffer was then discarded and the wells of the plate washed with PBST. […] The diluted target binding scaffold proteins were then transferred to the antigen coated MaxiSorp plate and allowed to bind to the immobilized blocked antigens for 2 hours at room temperature with gentle shaking. Following this, the diluted target binding scaffold protein solution was discarded and the wells of the MaxiSorp plate were washed 4 times with PBST. Then, 100 μl of a 1/4000 diluted solution of anti-FLAG M2 HRP conjugated antibody (Sigma) in PBST containing 2.5% (w/v) skim milk was added to each well and allowed to bind for 1 hour. This was then discarded and the plate washed 4 times with PBST. Then 100 μl of ELISA POD Substrate TMB Kit (HYPER) detection reagent (Nacalai Tesque, Japan) was added per well and the color development reaction stopped by addition of 100 μl of 1M phosphoric acid. Absorbance of each well was read at 450 nm wavelength. The EC₅₀ of binding was calculated from four parameter logistic plots of the measured absorbance values (FIGS. 17A-17B).

Binder	EC50 [nM]
B1	4
B2	65
B3	22

molecular target: T2, Biotinylated human PD-L1 antigen comprising a human IgG1 Fc domain (Acro Biosystems) (human, UniProt Q9NZQ7 19-238, biotinylated (site not stated)); experiment: as above
T2 construct: The ELISA text says only 'antigens' were coated at 1 ug/mL; also called PD-L1 target; not shown: human IgG1 Fc domain
T2 sequence (Q9NZQ7 19-238 limits assumed): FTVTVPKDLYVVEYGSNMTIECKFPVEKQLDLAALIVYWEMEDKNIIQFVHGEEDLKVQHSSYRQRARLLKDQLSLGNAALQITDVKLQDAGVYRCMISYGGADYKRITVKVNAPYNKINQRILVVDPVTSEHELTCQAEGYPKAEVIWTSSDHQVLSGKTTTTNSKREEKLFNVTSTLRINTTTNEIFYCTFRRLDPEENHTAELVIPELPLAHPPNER
Experimental: as §1

Binder	EC50 [nM]
B4	165
B5	108
B6	91
